From patent EP2651411B1

Assays:
[1] = target: carcinoembryonic antigen (CEA) (UniProt P06731); assay: SEC-HPLC; the conjugate without CEA eluted at 10.312 min and 10.331 min in serum
[2] = target: gastrin-releasing peptide receptor on PC-3 cells (UniProt P30550); assay: competition with ^125I-Bombesin for binding to 3x10^6 PC-3 cells, inhibitor 56 to 0.44 nM
[3] = target: gastrin-releasing peptide receptor on PC-3 cells (UniProt P30550); assay: competition with ^125I-BBN for binding to PC-3 cells, inhibitor 250 to 2 nM
[4] = target: somatostatin receptors on AR42J cells (rat); assay: apparent IC50; competition with ^111In(DTPA-octreotide) on AR42J cells, 3 h at RT

UniProt P30550, sequence (P30550 whole entry): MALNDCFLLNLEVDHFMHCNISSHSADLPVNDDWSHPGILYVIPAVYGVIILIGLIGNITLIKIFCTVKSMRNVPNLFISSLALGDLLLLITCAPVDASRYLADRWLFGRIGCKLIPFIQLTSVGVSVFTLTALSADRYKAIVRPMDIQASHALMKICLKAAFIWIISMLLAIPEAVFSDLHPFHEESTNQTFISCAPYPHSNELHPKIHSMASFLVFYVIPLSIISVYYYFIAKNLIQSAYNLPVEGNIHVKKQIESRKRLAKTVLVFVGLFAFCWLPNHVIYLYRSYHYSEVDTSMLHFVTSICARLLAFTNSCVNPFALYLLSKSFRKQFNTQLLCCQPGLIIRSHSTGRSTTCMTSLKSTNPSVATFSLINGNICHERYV
UniProt P06731, sequence (P06731 35-685 limits assumed): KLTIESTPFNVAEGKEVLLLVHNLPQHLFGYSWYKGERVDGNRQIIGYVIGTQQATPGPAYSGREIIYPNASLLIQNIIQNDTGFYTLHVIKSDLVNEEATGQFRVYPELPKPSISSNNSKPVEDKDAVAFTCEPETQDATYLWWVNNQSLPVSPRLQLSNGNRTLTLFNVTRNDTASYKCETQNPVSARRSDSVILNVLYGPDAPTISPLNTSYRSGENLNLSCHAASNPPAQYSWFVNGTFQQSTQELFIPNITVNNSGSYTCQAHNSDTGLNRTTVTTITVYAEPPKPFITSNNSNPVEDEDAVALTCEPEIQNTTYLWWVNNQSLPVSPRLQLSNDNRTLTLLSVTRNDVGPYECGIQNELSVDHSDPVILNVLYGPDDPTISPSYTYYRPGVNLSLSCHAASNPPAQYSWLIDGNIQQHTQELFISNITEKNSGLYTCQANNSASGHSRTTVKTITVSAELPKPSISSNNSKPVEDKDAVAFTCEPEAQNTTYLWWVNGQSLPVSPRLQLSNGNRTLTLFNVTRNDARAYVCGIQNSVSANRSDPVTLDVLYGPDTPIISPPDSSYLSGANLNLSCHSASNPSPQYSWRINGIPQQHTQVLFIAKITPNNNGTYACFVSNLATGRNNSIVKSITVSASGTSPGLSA

IC50 [3] | IC50 [4] | other results | Substance
 |  | SEC-HPLC retention time of the major product after adding CEA [1]: 7.21 min | Al^18F(NODA-MPAES)-hMN-14 Fab'
35.9 nM |  | IC50 [2]: 21.5 nM | IMP468 (NOTA-NH-(CH2)7CO-Gln-Trp-Val-Trp-Ala-Val-Gly-His-Leu-Met-NH2) (peptide)
 | 13 nM |  | ^69Ga(IMP466) (^69Ga complex of NOTA-D-Phe-Cys-Phe-D-Trp-Lys-Thr-Cys-Throl) (peptide)
24.4 nM |  |  | commercially available BBN peptide (bombesin positive control)
 | 6.3 nM |  | ^115In(DTPA-octreotide) (peptide)
 | 3.6 nM |  | Al^19F(IMP466) (Al^19F complex of NOTA-D-Phe-Cys-Phe-D-Trp-Lys-Thr-Cys-Throl) (peptide)
